B1: PC1/3-prodomain combination mutant M10 (M5 with His72Leu) (domain or fragment)
chain: GKRQFVNEWAAEIPGGPEAASAIAEELGYDLLGQIGSLENHYLFKLKNHPRKSARSAFHITKRLSDDDRVIWAEQQYEKERSKR

Columns and labels:
[1] = target: furin (human) (UniProt P09958); assay: enzyme inhibition kinetics (fluorogenic substrate); condition 2: 50 mM Mes/NaOH pH 6.0, 300 mM NaCl, 2 mM CaCl2, 0.2% Triton X-100, 25 °C; substrate Ac-RR(Tle)KR-AMC; triplicates
[2] = target: furin (human) (UniProt P09958); assay: enzyme inhibition kinetics (fluorogenic substrate); condition 3: 50 mM Hepes/NaOH pH 7.4, 300 mM NaCl, 2 mM CaCl2, 0.2% Triton X-100, 25 °C; substrate Ac-RR(Tle)KR-AMC; triplicates
[3] = target: furin (soluble, mature, active) (UniProt P09958); assay: NMR, 2D 1H-15N HMBC of histidine side chains as a function of pH (600 MHz); conditions: pH 6.3-7.4; 278 K (~5 °C); 150 mM NaCl; 50 mM NaH2PO4/Na2HPO4 at each adjusted pH
[4] = target: His75 (UniProt position 75, FKHKNHPRRSR); assay: NMR; conditions: 278 K (~5 °C); 150 mM NaCl plus 50 mM sodium phosphate; 50 mM NaH2PO4/Na2HPO4, 150 mM NaCl. The pH was set by dialysis into buffer of the adjusted pH, not by direct acid addition.; Isolated (furin-free) folded prodomain, 0.2 mM
[5] = target: His72 (UniProt position 72, HYLFKHKNHPR); assay: NMR; conditions: 278 K (~5 °C); 150 mM NaCl plus 50 mM sodium phosphate; 50 mM NaH2PO4/Na2HPO4, 150 mM NaCl. The pH was set by dialysis into buffer of the adjusted pH, not by direct acid addition.; Isolated (furin-free) folded prodomain, 0.2 mM
[6] = target: His85 (UniProt position 85, RRSAFHITKRL); assay: NMR; conditions: 278 K (~5 °C); 150 mM NaCl plus 50 mM sodium phosphate; 50 mM NaH2PO4/Na2HPO4, 150 mM NaCl. The pH was set by dialysis into buffer of the adjusted pH, not by direct acid addition.; Isolated (furin-free) folded prodomain, 0.2 mM

Chain of furin (soluble, mature, active) (P09958 whole entry): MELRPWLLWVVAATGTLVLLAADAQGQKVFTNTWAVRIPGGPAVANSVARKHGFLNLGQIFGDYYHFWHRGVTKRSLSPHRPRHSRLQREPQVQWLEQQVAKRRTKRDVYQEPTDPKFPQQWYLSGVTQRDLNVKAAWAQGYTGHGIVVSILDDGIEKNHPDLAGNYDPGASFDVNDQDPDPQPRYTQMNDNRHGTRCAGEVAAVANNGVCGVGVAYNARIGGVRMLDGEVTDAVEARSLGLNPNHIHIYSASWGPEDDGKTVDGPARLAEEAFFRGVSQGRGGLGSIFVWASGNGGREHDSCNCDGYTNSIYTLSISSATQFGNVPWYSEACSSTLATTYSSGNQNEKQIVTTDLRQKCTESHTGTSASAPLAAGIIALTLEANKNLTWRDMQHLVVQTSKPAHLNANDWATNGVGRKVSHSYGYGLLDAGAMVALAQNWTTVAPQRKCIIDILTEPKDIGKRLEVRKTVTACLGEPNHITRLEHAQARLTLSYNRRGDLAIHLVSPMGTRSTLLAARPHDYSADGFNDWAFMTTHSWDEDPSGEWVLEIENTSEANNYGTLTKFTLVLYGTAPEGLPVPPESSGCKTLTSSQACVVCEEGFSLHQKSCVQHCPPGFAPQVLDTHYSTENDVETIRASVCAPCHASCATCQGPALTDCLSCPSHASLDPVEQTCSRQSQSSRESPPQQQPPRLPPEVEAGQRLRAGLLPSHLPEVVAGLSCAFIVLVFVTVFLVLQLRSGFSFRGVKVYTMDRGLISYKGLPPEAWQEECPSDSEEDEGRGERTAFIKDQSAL

Row | Molecule | Ki [1] [nM] | Ki [2] [nM] | further results
1 | PC1/3-prodomain mutant M1 (R78A) (from UniProt P29120 28-110) (domain or fragment) | 2.2 | 0.56 | –
2 | PC1/3-prodomain mutant M2 ((77)A-R-S-A-A) (from UniProt P29120 28-110) (domain or fragment) | 0.88 | 0.73 | –
3 | PC1/3-prodomain mutant M5 ((77)R-K-S-A-R) (from UniProt P29120 28-110) (domain or fragment) | – | 0.139 | –
4 | PC1/3-prodomain, wild type (15N-labelled for NMR) | – | – | pKa, His72 of the PC1/3-prodomain (WT) [3]: 4.82 pH units; pKa, His75 of the PC1/3-prodomain (WT) [3]: 5.03 pH units; pKa, His85 of the PC1/3-prodomain (WT) [3]: 5.6 pH units
5 | Proprotein convertase 1/3 (PC1/3, neuroendocrine convertase 1) prodomain, wild type (Homo sapiens) | – | – | pKa [4]: 5.03; pKa [5]: 4.82; pKa [6]: 5.60
6 | B1 | 0.14 | 0.101 | –
